Experimental data as given in publication PMC9243173.

Target: 3HA-3FLAG-CIAO3-C190S/C395S (human) (UniProt Q9H6Q4)
Test: affinity purification with mass spectrometry; anti-HA beads on lysates of Flp-In 293 cells expressing the 3HA-3FLAG-tagged bait (NUBP2, wildtype or mutant CIAO3); targeted proteomics assay (parallel reaction monitoring) of CIA components and substrates; CIAO3 purifications normalised to CIAO3; wildtype CIAO3 cells also treated with FAC or DFO for 8 h

3HA-3FLAG-CIAO3-C190S/C395S (human), sequence (Q9H6Q4 whole entry C190S/C395S): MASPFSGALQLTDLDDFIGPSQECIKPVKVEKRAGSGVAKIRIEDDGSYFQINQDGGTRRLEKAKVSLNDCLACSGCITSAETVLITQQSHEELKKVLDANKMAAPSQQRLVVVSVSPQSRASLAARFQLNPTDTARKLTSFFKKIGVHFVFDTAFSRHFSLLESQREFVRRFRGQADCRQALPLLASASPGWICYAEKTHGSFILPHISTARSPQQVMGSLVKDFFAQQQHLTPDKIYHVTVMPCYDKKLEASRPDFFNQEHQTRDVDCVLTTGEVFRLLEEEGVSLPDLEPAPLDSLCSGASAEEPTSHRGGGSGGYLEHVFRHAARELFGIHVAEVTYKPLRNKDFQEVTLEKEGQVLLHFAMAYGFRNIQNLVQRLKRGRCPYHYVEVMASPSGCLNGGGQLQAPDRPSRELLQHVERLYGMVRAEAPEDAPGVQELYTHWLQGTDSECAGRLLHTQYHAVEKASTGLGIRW

fold decrease against wildtype CIAO3: 3 to 4 fold
Substance: The CIA targeting complex
